Assay results as given in the supplement of paper PMC10724198.
± gives the standard deviation of the averaged measurements.

Experiments:
Saccharomyces cerevisiae [1] = assay: protein stability index of tFT-peptide fusion (C-terminal peptide) (PSI (0-1 scale)); higher = more stable (slower turnover)
Method: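 MPS profiling in S. cerevisiae of the tFT-X12 degron library: putative degron peptides plus stable controls, 12 aa, fused to the C-terminus of a sfGFP-mCherry timer. Cells are FACS-sorted into 8 mCherry/sfGFP bins and deep-sequenced. PSI runs from 0 (unstable) to 1 (stable). Backgrounds are wild type, das1Δ and doa10Δ at 30 °C, and wild type, das1Δ, cdc34-1 and cdc53-1 at 37 °C; 2-3 technical replicates each.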

Saccharomyces cerevisiae [2] = assay: as above; conditions: genetic background: wild type; temperature: 30 C
[3] = genetic background: cdc34-1, temperature: 37 C
[4] = genetic background: cdc53-1, temperature: 37 C
[5] = genetic background: das1 deletion, temperature: 30 C
[6] = genetic background: das1 deletion, temperature: 37 C
[7] = genetic background: doa10 deletion, temperature: 30 C
[8] = genetic background: wild type, temperature: 30 C
[9] = genetic background: wild type, temperature: 37 C
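Further: PSI is a weighted mean of sequencing reads over stability bins, variants kept only with over 10 reads, mCherry proximal and sfGFP distal, peptide attached via GGGS linker.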

Sequence	protein stability index (Saccharomyces cerevisiae [1]; [3])	protein stability index (Saccharomyces cerevisiae [1]; [4])	protein stability index (Saccharomyces cerevisiae [1]; [5])	protein stability index (Saccharomyces cerevisiae [1]; [6])	protein stability index (Saccharomyces cerevisiae [1]; [7])	protein stability index (Saccharomyces cerevisiae [1]; [8])	protein stability index (Saccharomyces cerevisiae [1]; [9])	protein stability index (Saccharomyces cerevisiae [2])
FSLRLFLVLALS	0.3032 ± 0.0029	0.377 ± 0.01	0.261 ± 0.021	0.395 ± 0.012	0.123 ± 0.013	0.154 ± 0.028	0.227 ± 0.0026	0.193 ± 0.0034
CPVSRHLLVLYW	0.413 ± 0.0094	0.4424 ± 0.0029	0.345 ± 0.029	0.4933 ± 0.0031	0.402 ± 0.017	0.331 ± 0.019	0.47 ± 0.012	0.432 ± 0.029
GGGAGVVWVRLG	0.5376 ± 0.0049	0.732 ± 0.022	0.642 ± 0.0084	0.7415 ± 0.0037	0.112 ± 0.0043	0.12 ± 0.027	0.166 ± 0.011	0.235 ± 0.035
GLWLRVCIVAWV	0.0407 ± 0.01	0.122 ± 0.017	0.0686 ± 0.031	0.19 ± 0.0034	0.0424 ± 0.011	0.0551 ± 0.013	0.144 ± 0.0033	0.14 ± 0.0097
AVSFVTLSIMVM	0.0451 ± 0.007	0.0958 ± 0.092	0.153 ± 0.016	0.163 ± 0.0065	0.135 ± 0.005	0.157 ± 0.018	0.1217 ± 0.0011	0.195 ± 0.032
IIFCVRVVGGDL	0.449 ± 0.038	0.508 ± 0.0054	0.371 ± 0.029	0.5566 ± 0.00057	0.332 ± 0.0066	0.38 ± 0.018	0.5288 ± 0.0041	0.46 ± 0.04
FLLGWFLFFVCS	0.401 ± 0.015	0.422 ± 0.019	0.32 ± 0.027	0.4361 ± 0.0024	0.289 ± 0.012	0.283 ± 0.027	0.393 ± 0.013	0.406 ± 0.043
SWIKRYEITCIL	0.543 ± 0.033	0.568 ± 0.026	0.424 ± 0.044	0.5973 ± 0.0036	0.363 ± 0.0093	0.39 ± 0.0099	0.492 ± 0.027	0.478 ± 0.015
GITSFFSWSFLS	0.6014 ± 0.0038	0.7537 ± 0.0057	0.682 ± 0.064	0.782 ± 0.055	0.169 ± 0.015	0.172 ± 0.0065	0.366 ± 0.0087	0.237 ± 0.048
SYVFEFIVSVVF	0.208 ± 0.016	0.347 ± 0.011	0.253 ± 0.03	0.373 ± 0.015	0.23 ± 0.0064	0.255 ± 0.014	0.341 ± 0.016	0.315 ± 0.0044
GGWFFWVGAWVV	0.173 ± 0.005	0.346 ± 0.028	0.202 ± 0.026	0.3957 ± 0.0013	0.102 ± 0.018	0.121 ± 0.025	0.214 ± 0.0027	0.193 ± 0.0025
HNQDKNVKYKIG	0.672 ± 0.023	0.733 ± 0.034	0.625 ± 0.032	0.705 ± 0.021	0.248 ± 0.006	0.33 ± 0.039	0.536 ± 0.0064	0.41 ± 0.037
LVSLCYAYPRYC	0.646 ± 0.016	0.685 ± 0.008	0.532 ± 0.016	0.7025 ± 0.0052	0.2577 ± 0.00032	0.279 ± 0.031	0.5826 ± 0.0029	0.387 ± 0.025
VSVQVRCCPWVG	0.679 ± 0.037	0.735 ± 0.013	0.622 ± 0.011	0.728 ± 0.014	0.618 ± 0.031	0.629 ± 0.016	0.709 ± 0.011	0.7153 ± 0.0063
LLVIAIKVPANS	0.489 ± 0.013	0.485 ± 0.0072	0.352 ± 0.025	0.507 ± 0.018	0.337 ± 0.036	0.358 ± 0.012	0.485 ± 0.00075	0.429 ± 0.024
LSVSEILAVKCG	0.559 ± 0.034	0.584 ± 0.0073	0.429 ± 0.034	0.592 ± 0.026	0.363 ± 0.0039	0.411 ± 0.026	0.5632 ± 0.0052	0.489 ± 0.012
RVSIIYLGVLIS	0.174 ± 0.012	0.297 ± 0.025	0.26 ± 0.024	0.436 ± 0.0092	0.0604 ± 0.011	0.073 ± 0.013	0.0592 ± 0.036	0.112 ± 0.025
FCTSSRLLYCSA	0.177 ± 0.0029	0.222 ± 0.0037	0.206 ± 0.026	0.3192 ± 0.00046	0.175 ± 0.0018	0.202 ± 0.026	0.278 ± 0.0096	0.302 ± 0.01
